From the Human Domainome abundance scans (Beltran et al. 2025)

B1: DnaJ homolog subfamily C member 2, residues 451 to 503; numbered along this chain, Q99543 (parent)
chain: SKNWSEDDLQLLIKAVNLFPAGTNSRWEVIANYMNIHSSSGVKRTAKDVIGKA

Variants of: B1
Assay: abundance fitness (aPCA) (normalised: wild type 0, dead -1); higher = more abundant; growth selection in yeast, the domain comes from the species named
Details: Homo sapiens

Abundance fitness, by site and new letter:
V16: K 0.18, I 0.08, Q 0.168, R 0.002, W -0.268, L -0.067, M 0.065, S -0.054, E -0.042, C -0.186, N -0.071, A -0.164, G -0.266, D -0.371, H -0.25, P -1.04, Y -0.028
P20: S -0.411, N -0.292, C -0.555, T -0.607, G -0.103, W -0.975, E -0.358, I -0.961, F -0.984, Q -0.328, R -0.392, H -0.228, A -0.571, D -0.13, V -0.772, M -0.955
L9: H -0.071, V -0.082, N 0.184, I -0.014, E 0.03, M 0.036, A -0.014, C -0.052, F 0.065, G -0.143, Y 0.022, D 0.156, Q 0.145, W -0.058, K -0.043, P -0.724, R -0.054
S5: Y -0.715, D -0.676, T -0.014, V -0.676, A -0.747, M -0.514, F -0.654, C -0.286
Q10: N -0.083, T -0.319, Y -0.207, F -0.483, E -0.054, K -0.107, V -0.206, G -0.141, C -0.577, I -0.212, P -0.802, M -0.34, W -0.706, A -0.189, S -0.163, D -0.217, H -0.254, L -0.141
A15: E -0.965, I -0.982, W -0.682, C -0.279, H -0.754, Y -0.688, P -0.724, M -0.83, G -0.182, D -0.777, L -0.61, Q -1.03, T -0.519, R -0.994, F -0.847, V -0.511, N -0.984, S -0.214
K2: Y -0.138
A21: D -0.039, R -0.054, W -0.244, V -0.142, I -0.185, K -0.018, E 0.066, Y -0.265, F -0.096, S -0.029, Q 0.049, L -0.079, P -0.094, C -0.117, M 0.005, T -0.016, N -0.217, H 0.083, G -0.122
F19: L -0.602, W -0.215, Y -0.178, C -0.586, N -0.803, S -0.622, V -0.102, M -0.572, E -1.06, P -1.11, D -0.948, K -0.961, T -0.456, I -0.29, Q -0.86, R -0.91, A -0.536, H -0.093
W4: Y -0.341, R -0.777, C -0.704, M -0.06, Q -0.704, V -0.908, D -0.808, S -0.599, T -0.621, L -0.229, A -0.639, E -0.825, P -0.828, F -0.104, K -0.758, I -0.465
T23: A -0.267, C -0.353, D -0.165
I13: N -0.097, G 0.099, R 0.086, T -0.141, W 0.058, Q 0.131, P -0.537, V -0.033, D 0.142, A 0.14, E -0.006, K 0.053, F 0.039, C -0.147, S 0.073, M 0.021, H 0.042, Y -0.038, L 0.085
G22: D -0.016, F -0.489, Q -0.293, Y -0.267, P -0.217, K -0.146, S 0.002, M -0.371, L -0.484, E 0.011, R -0.098, W -0.293, I -0.194, C 0.015, A -0.064, H -0.166, T -0.065, V -0.28
N3: D 0.015, F -0.037, E -0.554, I 0.021, G -0.459, L -0.12, S -0.234, T -0.114, K -0.441, V -0.227, R -0.338, H -0.025, P -0.159, W -0.491, C -0.247
E6: M -0.366, F 0.038, P 0.107, D -0.154, T -0.175, V -0.121, C 0.051, L -0.404, Y -0.186, H -0.615, K -0.679, R -0.543, G -0.155, S 0.074, Q -0.055
D7: R 0.015, V -0.054, L -0.047, W -0.437, Y -0.369, F -0.308, S 0.042, E 0.086, K -0.04, H -0.257, P -0.045, I -0.19, M 0.037, C -0.889, T -0.005, Q 0.063, N -0.114, A 0.106, G -0.015
L18: Y -0.173, P -0.807, K -0.268, T -0.054, C -0.222, G -0.53, M 0.065, W -0.547, H -0.272, V -0.108, E -0.305, I -0.073, A 0.043, D -0.332, F -0.219, S -0.273, Q -0.38, R -0.145
L11: C -0.403, R -0.536, V -0.37, Y -0.579, I 0.007, K -0.747, S -0.582, A -0.712, P -0.891, Q -0.632, G -0.819, D -0.802, M -0.229, F -0.382
D8: C -0.732, A -0.977, I -0.534, T -0.186, Y -0.712, E -0.081, Q -0.559, S -0.615, M -0.844, V -0.937, N -0.757, P -1.06, R -0.453, K -0.422
K14: F -0.006, D -0.054, G -0.243, L -0.317, M -0.226, H -0.05, E -0.096, C -0.274, V -0.196, N -0.274, S -0.225, P -0.971, A -0.026, Q -0.308, R -0.088, W -0.602, Y -0.207, I -0.296
L12: M -0.223, P -0.719, G -0.779, I -0.456, D -0.97, A -0.617, E -0.952, W -0.177, S -0.802, V -0.511, C -0.667, Y -0.168, K -0.97, R -0.796, T -0.907, N -0.875, Q -0.894
N17: I -0.384, H -0.158, A -0.085, T -0.016, L -0.216, R -0.036, Y -0.194, V -0.161, D 0.12, W -0.348, F -0.353, K -0.043, P -0.875, G -0.082, Q -0.157, S -0.061
